Reference: patent publication US20230038638A1, “COMPLEMENT FACTOR I-RELATED COMPOSITIONS AND METHODS” (published 2023)
Changes are numbered by the printed parent chain. Each block holds one molecule with its values, some of them ahead of it.

Experiments:
[1] = biological target: T1, human C4b (human) (UniProt P0C0L4)
T1 sequence: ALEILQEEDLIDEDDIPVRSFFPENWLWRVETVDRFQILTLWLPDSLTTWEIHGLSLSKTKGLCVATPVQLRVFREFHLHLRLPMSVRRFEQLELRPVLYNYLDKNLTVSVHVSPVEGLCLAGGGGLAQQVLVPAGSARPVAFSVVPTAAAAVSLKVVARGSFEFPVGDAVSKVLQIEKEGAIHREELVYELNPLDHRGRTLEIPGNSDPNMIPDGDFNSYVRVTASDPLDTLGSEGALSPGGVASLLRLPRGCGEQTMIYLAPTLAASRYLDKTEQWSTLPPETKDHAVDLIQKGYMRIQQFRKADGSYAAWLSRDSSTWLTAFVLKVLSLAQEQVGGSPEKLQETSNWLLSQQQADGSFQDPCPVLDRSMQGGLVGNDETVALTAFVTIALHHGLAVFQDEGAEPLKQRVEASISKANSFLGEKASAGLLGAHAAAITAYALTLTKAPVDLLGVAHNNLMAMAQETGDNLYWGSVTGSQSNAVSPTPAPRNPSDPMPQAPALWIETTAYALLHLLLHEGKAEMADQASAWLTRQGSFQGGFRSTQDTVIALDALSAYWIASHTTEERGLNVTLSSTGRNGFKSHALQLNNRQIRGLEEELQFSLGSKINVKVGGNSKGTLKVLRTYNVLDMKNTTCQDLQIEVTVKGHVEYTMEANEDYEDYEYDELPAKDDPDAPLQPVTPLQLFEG

[2] = biological target: T2, human C4b (human) (UniProt P0C0L5)
T2 sequence: T1 sequence with A151T, D317G, P364L, C365S, L368I, D369H, N420S, V451A, L454R, S530A

[3] = biological target: T1, human C4b (human); remark: listed apart in the source
[4] = biological target: soluble human C3b (human) (UniProt P01024)

Molecule: CFI-HSA variant Y408L; D425R; E530Y (enzyme)
C4c EC50 (nM) [1]: 900 nM

Molecule: CFI-HSA variant K534N (enzyme)
C4c EC50 [1]: 300 nM

Molecule: CFI-HSA variant P384G (enzyme)
C4b Screen Ref Fold (fold vs CFI-HSA wild type) [2]: 0.04
C4b Screen Ref Fold (fold of reference) [3]: 0.1
iC3b Screen Ref Fold (fold of reference) [4]: 0.01
iC3b Screen Ref Fold (fold vs CFI-HSA wild type) [4]: 0.03

Molecule: CFI-HSA variant E457G; E461Q; F464Y (enzyme)
C4c EC50 [1]: 40.3 nM

Molecule: CFI-HSA variant F464I (enzyme)
C4c EC50 [1]: > 1000 nM

Molecule: CFI-HSA variant N531G; R462K (enzyme)
C4c EC50 [1]: 51.2 nM

Molecule: CFI-HSA variant Y408L; E530K; N531G (enzyme)
C4c EC50 [1]: 111 nM

Molecule: CFI-HSA variant Y408L; N531G; E457G; F464Y (enzyme)
C4c EC50 [1]: 23.2 nM

Molecule: CFI-HSA variant Y408L; N531G; E530Y (enzyme)
C4c EC50 (nM) [1]: 54 nM

Molecule: CFI-HSA variant R557A; N531M; Y403F; K504Y; E457N; E461V (enzyme)
C4b Screen Ref Fold (fold of CFI-HSA wild type) [3]: 3.2
iC3b Screen Ref Fold (fold of CFI-HSA wild type) [4]: 0.36

Molecule: CFI-HSA variant R557A; N531M; Y403F; K504Y; E457N; E461Q (enzyme)
C4b Screen Ref Fold (fold of CFI-HSA wild type) [3]: 3.18
iC3b Screen Ref Fold (fold of CFI-HSA wild type) [4]: 0.36

Molecule: CFI-HSA N531G; E457G; F464Y (enzyme)
C4b Screen Ref Fold (fold of CFI-HSA wild type) [3]: 6.55
iC3b Screen Ref Fold (fold of CFI-HSA wild type) [4]: 1.24

Molecule: CFI-HSA P535N (enzyme)
C4b Screen Ref Fold (fold of CFI-HSA wild type) [3]: 0.33
iC3b Screen Ref Fold (fold of CFI-HSA wild type) [4]: 0.08

Molecule: CFI-HSA variant A405S; G406A; Y408L; Q409D (enzyme)
C4b Screen Ref Fold (fold of reference) [3]: 0.11
iC3b Screen Ref Fold (fold of reference) [4]: 0.06

Molecule: CFI-HSA variant Y408M; F537K; K504R; P558S (enzyme)
C4b Screen Ref Fold (fold of CFI-HSA wild type) [3]: 0.07
iC3b Screen Ref Fold (fold of CFI-HSA wild type) [4]: 1.26

Molecule: CFI-HSA variant D425K; S507A (enzyme)
C4b Screen Ref Fold (fold of CFI-HSA wild type) [3]: 0.01
iC3b Screen Ref Fold (fold of CFI-HSA wild type) [4]: -0.03

Molecule: CFI-HSA N531G; P535A; S507A (enzyme)
C4b Screen Ref Fold (fold of CFI-HSA wild type) [3]: 0.26
iC3b Screen Ref Fold (fold of CFI-HSA wild type) [4]: -0.02

Molecule: CFI-HSA E457G; F464Y (enzyme)
C4b Screen Ref Fold (fold of CFI-HSA wild type) [3]: 5.55
iC3b Screen Ref Fold (fold of CFI-HSA wild type) [4]: 1.31

Molecule: CFI-HSA variant E457G; S507A (enzyme)
C4b Screen Ref Fold (fold of CFI-HSA wild type) [3]: 0.1
iC3b Screen Ref Fold (fold of CFI-HSA wild type) [4]: -0.02

Molecule: CFI-HSA variant N531Y (enzyme)
C4b Screen Ref Fold (fold of reference) [3]: 2.94
iC3b Screen Ref Fold (fold of reference) [4]: 0.91

Molecule: CFI-HSA variant T346R (enzyme)
C4b Screen Ref Fold (fold of reference) [3]: 0.54
iC3b Screen Ref Fold (fold of reference) [4]: 0.95

Molecule: CFI-HSA K534T (enzyme)
C4b Screen Ref Fold (fold of CFI-HSA wild type) [3]: 1.44
iC3b Screen Ref Fold (fold of CFI-HSA wild type) [4]: 0.77

B1: WT mouse CFI; His tag (enzyme)
chain: RSPSASDLPQEELVDQKCLLQKYTHRSCNKVFCQPWQRCIEGTCICKLPYQCPRAGTPVCAMNGRSYPTYCHQKSFECLHPEIKFSHNGTCAAEGKFNVSLIYGRTKTEGLVQVKLVDQDERMFICKNSWSMAEANVACVDLGFPLGVRDIQGSFNISGNLHINDTECLHVHCRGVETSLAECAFTKRRTELSNGLAGVVCYKQDADFPTSLSFQCVNGKHIPQEKACNGVNDCGDQSDELCCKGCRGNASLCKSGVCIPDQYKCNGEVDCITGEDESRCEEDRQQNIPKGLARSAQGEAEIETEETEMLTPGMDNERKRIKSLLPKLSCGVKRNTHTRRKRVIGGKPANVGDYPWQVAIKDGQRITCGGIYIGGCWILTAAHCVRPSRAHSYQVWTALLDWLKPNSQLGIQTVKRVIVHEKYNGATFQNDIALIEMKMHTGKKECELPNSVPACVPWSPYLFQPNDRCIISGWGRGKDNQKVYSLRWGEVDLIGNCSQFYPDRYYEKEMQCAGTRDGSIDACKGDSGGPLVCEDINNVTYVWGIVSWGENCGKPEFPGVYTRVANYFDWISYHVGRSLVSQHNV
C4b Screen Ref Fold (fold of CFI-HSA wild type) [3]: -0.08
iC3b Screen Ref Fold (fold of CFI-HSA wild type) [4]: 0.03

The remaining lines, values ahead:

C4c EC50 [1]: 300 nM
Molecule: CFI-HSA variant T407G; Y408L; E457G (enzyme)

C4c EC50 (nM) [1]: 198 nM
Molecule: CFI-HSA variant Y553K (enzyme)

C4c EC50 [1]: 229 nM
Molecule: CFI-HSA variant Y408L; E530R; N531G (enzyme)

C4b Screen Ref Fold (fold vs CFI-HSA wild type) [2]: 0.24
C4b Screen Ref Fold (fold of reference) [3]: 0.24
iC3b Screen Ref Fold (fold of reference) [4]: 0.12
iC3b Screen Ref Fold (fold vs CFI-HSA wild type) [4]: 0.88
Molecule: CFI-HSA variant K504E (enzyme)

C4c EC50 (nM) [1]: 332 nM
Molecule: CFI-HSA variant E457G; E530Y (enzyme)

C4c EC50 [1]: 108 nM
Molecule: CFI-HSA variant E457G; Y408L (enzyme)

C4c EC50 [1]: 209 nM
Molecule: CFI-HSA variant T346K; Y408L; N531G (enzyme)

C4c EC50 (nM) [1]: 35.4 nM
Molecule: CFI-HSA variant Y408L; E457G; N531G; E530Y (enzyme)

C4c EC50 [1]: 24.5 nM
Molecule: CFI-HSA variant Y408L; N531G; E461Q; R462K (enzyme)

C4b Screen Ref Fold (fold of CFI-HSA wild type) [3]: 2.19
iC3b Screen Ref Fold (fold of CFI-HSA wild type) [4]: 0.81
Molecule: CFI-HSA K534W (enzyme)

C4b Screen Ref Fold (fold of reference) [3]: 0.42
iC3b Screen Ref Fold (fold of reference) [4]: 0
Molecule: CFI-HSA fusion WT; GGSSGG (SEQ ID NO: 6); fH(ccp1); CR1(ccp16); CR1(ccp17); fH(ccp4) (from UniProt P17927) (enzyme)

C4b Screen Ref Fold (fold of reference) [3]: 0.08
iC3b Screen Ref Fold (fold of reference) [4]: -0.01
Molecule: CFI-HSA variant N531P (enzyme)

C4b Screen Ref Fold (fold of reference) [3]: 0.09
iC3b Screen Ref Fold (fold of reference) [4]: 0.14
Molecule: CFI-HSA variant Q409D (enzyme)

C4b Screen Ref Fold (fold of CFI-HSA wild type) [3]: 0.06
iC3b Screen Ref Fold (fold of CFI-HSA wild type) [4]: 1.13
Molecule: CFI-HSA variant Y408M; P558S (enzyme)

C4b Screen Ref Fold (fold of CFI-HSA wild type) [3]: 0.08
iC3b Screen Ref Fold (fold of CFI-HSA wild type) [4]: 0.09
Molecule: CFI-HSA variant V463G (enzyme)

C4b Screen Ref Fold (fold of CFI-HSA wild type) [3]: 1.77
iC3b Screen Ref Fold (fold of CFI-HSA wild type) [4]: 1.92
Molecule: CFI-HSA variant Y408F; N531M (enzyme)

C4b Screen Ref Fold (fold of CFI-HSA wild type) [3]: 0
iC3b Screen Ref Fold (fold of CFI-HSA wild type) [4]: 0.02
Molecule: CFI-HSA variant Q373G (enzyme)

C4b Screen Ref Fold (fold of CFI-HSA wild type) [3]: 1.67
iC3b Screen Ref Fold (fold of CFI-HSA wild type) [4]: 0.97
Molecule: CFI-HSA variant Y408F; K504Y (enzyme)

C4b Screen Ref Fold (fold of reference) [3]: 1.4
iC3b Screen Ref Fold (fold of reference) [4]: 0.05
Molecule: CFI-HSA-FH_CCP1-4 fusion, Y408L; N531G; GGSSGG (SEQ ID NO: 6); CCP_1-4 (enzyme)

C4b Screen Ref Fold (fold of reference) [3]: 0.08
iC3b Screen Ref Fold (fold of reference) [4]: 0
Molecule: CFI-HSA variant Y372G (enzyme)

C4b Screen Ref Fold (fold of CFI-HSA wild type) [3]: 0.33
iC3b Screen Ref Fold (fold of CFI-HSA wild type) [4]: -0.03
Molecule: CFI-HSA variant I382G (enzyme)

C4b Screen Ref Fold (fold of reference) [3]: 0.31
iC3b Screen Ref Fold (fold of reference) [4]: 0.19
Molecule: CFI-HSA variant N531T (enzyme)

C4b Screen Ref Fold (fold of reference) [3]: 0.04
iC3b Screen Ref Fold (fold of reference) [4]: -0.01
Molecule: CFI-HSA variant W381G; V390G (enzyme)

C4b Screen Ref Fold (fold of CFI-HSA wild type) [3]: 3.51
iC3b Screen Ref Fold (fold of CFI-HSA wild type) [4]: 0.42
Molecule: CFI-HSA variant R557A; N531D; Y403F; K504Y; E457G; E461Q (enzyme)

C4b Screen Ref Fold (fold of CFI-HSA wild type) [3]: 0.14
iC3b Screen Ref Fold (fold of CFI-HSA wild type) [4]: 0.29
Molecule: CFI-HSA P535W (enzyme)

C4b Screen Ref Fold (fold of CFI-HSA wild type) [3]: 3.13
iC3b Screen Ref Fold (fold of CFI-HSA wild type) [4]: 0.24
Molecule: CFI-HSA variant R557A; N531M; Y403F; K504Y; E457N; E461T (enzyme)

C4b Screen Ref Fold (fold of CFI-HSA wild type) [3]: 4.81
iC3b Screen Ref Fold (fold of CFI-HSA wild type) [4]: 1.1
Molecule: CFI-HSA T346K; Y408L; N531G (enzyme)

C4b Screen Ref Fold (fold of CFI-HSA wild type) [3]: 3.46
iC3b Screen Ref Fold (fold of CFI-HSA wild type) [4]: 0.7
Molecule: CFI-HSA variant N531M; Y403F; K504Y; E457G; E461Q (enzyme)

C4b Screen Ref Fold (fold of CFI-HSA wild type) [3]: 0.11
iC3b Screen Ref Fold (fold of CFI-HSA wild type) [4]: 0.01
Molecule: CFI-HSA variant D425K; Y408M; E530F; F537K; K504R; P558S (enzyme)

C4b Screen Ref Fold (fold of CFI-HSA wild type) [3]: 6.13
iC3b Screen Ref Fold (fold of CFI-HSA wild type) [4]: 1.17
Molecule: CFI-HSA N531G; R462K (enzyme)

C4b Screen Ref Fold (fold of CFI-HSA wild type) [3]: 0.01
iC3b Screen Ref Fold (fold of CFI-HSA wild type) [4]: 0.03
Molecule: CFI-HSA D506W (enzyme)

C4b Screen Ref Fold (fold of CFI-HSA wild type) [3]: 0.09
iC3b Screen Ref Fold (fold of CFI-HSA wild type) [4]: 0.01
Molecule: CFI-HSA F464I (enzyme)
